Source: patent US10772909B2, “System and method for insulin-mimetic of cartilage, bone, or osteochondral repair and piezoelectric composite scaffold” (New Jersey Institute of Technology, priority 2016, dated 2020)

Test system: PBMCs
Assay: PBMC proliferation assay (3H-TdR incorporation)
Format: cell-based, human
Conditions: positive control, 1% PHA
Description: Peripheral blood was obtained from four healthy subjects, two males and two females (ages 18-30 years old). Peripheral blood mononuclear cells (PBMCs) were isolated by Ficoll Hypaque (Sigma-Aldrich) gradient separation. Human MSCs were obtained from human bone marrow aspirates (Lonza, Walkersville, Md., USA) from four healthy subjects, two males and two females, ages 18-30 years old, according to previously published protocols and cryopreserved before use. Human MSCs were characterized for the expression of surface markers CD29, CD44, CD73, CD90, and CD105 and lack expression of CD14, CD34 and CD45 as determined by flow cytometry. The differentiation potency was determined by the differentiation of MSCs into osteoblasts, adipocytes and chondrocytes in vitro [32,33]. […]
The cytotoxicity of Na2WO4 was examined using PBMCs. Cell proliferation was measured using tritiated thymidine (^3H-TdR) incorporation as described in Kapoor et al.. […]
After 16 h, the cells were harvested on glass fiber filters (Cambridge Technology, Inc.) using a cell harvester (EMD Millipore). […] The radioactive incorporation of ^3H-TdR in the cells was measured using a liquid scintillation counter (Beckman; Fullerton, Calif., USA). The stimulation index (SI) was calculated as disintegration per minute (dpm) of treated group/dpm of unstimulated PBMCs (0 mM).

With phytohemagglutinin [PHA] the “stimulation index (SI)” value was 11.5±1.2.
